Data: publication PMC3360035

Target: Wild-type human γD-crystallin (human) (UniProt P07320)
Sequence (P07320 whole entry): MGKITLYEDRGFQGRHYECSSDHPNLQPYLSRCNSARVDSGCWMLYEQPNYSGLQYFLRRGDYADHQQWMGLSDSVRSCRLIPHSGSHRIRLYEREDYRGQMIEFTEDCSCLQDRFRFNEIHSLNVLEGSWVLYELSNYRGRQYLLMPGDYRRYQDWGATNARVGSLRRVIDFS

αB-crystallin, wild type (from UniProt P02511 1-175) (natural protein)
suppression of aggregation on dilution out of 5 M GdnHCl (from maximum A350), αB in 5-fold molar excess: 72%
